One data set relates to HFMCD-fed mice. Description: HFMCD NASH model, antibody from week 6 to 10. Type of data set: in vivo, mouse. Conditions: 10 mg/kg biweekly, four weeks of therapy from week 6. As for the experimental part:
FIGS. 20A to 20N. Therapeutic targeting of Il-11 inhibits and reverses NASH pathologies in preclinical models. (A) Schematic showing therapeutic use of X203 and X209 (10 mg/kg, biweekly) in HFMCD-fed mice for experiments shown in (B-E). X203, X209 or IgG isotype control were administered from week 6 to 10 of HFMCD diet. (B) Representative liver histological images (Masson's Trichrome staining; scale bars, 100 μm), (C) relative liver hydroxyproline content, (D) relative liver pro-inflammatory mRNA expression levels (n≥6/group) and (E) serum ALT levels. (F) Western blots of hepatic Erk activation status. (G) Schematic of X203 or IgG administration to MCD-fed db/db mice for experiments shown in H-N. Western blots of hepatic (H) Il-11 and Gapdh, (I) p-Erk and Erk. (J) Representative Masson's Trichrome images of liver from X203 or IgG-treated MCD-fed db/db mice (scale bars, 100 μm). The levels of (K) hepatic triglyceride, (L) relative liver hydroxyproline, (M) serum ALT, and (N) mRNA expression of liver pro-inflammatory markers (n≥5/group). (C-E,K-N) Data are shown as box-and-whisker with median (middle line), 25th-75th percentiles (box) and min-max percentiles (whiskers); two-tailed, Tukey-corrected Student's t-test. FC: fold change; NC: normal chow; HFMCD: high fat methionine- and choline-deficient; MCD: methionine- and choline-deficient.
High fat methionine and choline-deficient (HFMCD) diet fed wild-type mice Five week old male C57BL/6N mice were fed with Methionine and Choline deficient diet supplemented with 60 kcal % fat (A060713011316, Research Diets); control mice were fed with normal chow (NC, Specialty Feeds). Durations of diet and antibody therapies are described.
Mice were injected intraperitoneally with either antagonist anti-IL-11 antibody, antagonist anti-IL11RA antibody or an identical amount of IgG isotype control for the treatment durations outlined in the figures.

Data set [1] in a line: Long-term high dose preclinical toxicology of X209 and X203. Format: in vivo, mouse. As to conditions: 10 mg/kg ×2/week, 5 months. As for the experimental part:
FIGS. 19A to 19J. Anti-IL-11 therapies inhibit HSC-to-myofibroblasts transformation in an ERK dependent manner and have a favourable metabolic safety profile. (A) Dose-response curve and IC50 value of X203 and X209 and ([…] to 4 μg/ml; 4-fold dilution) in inhibiting MMP2 secretion by TGFβ1-stimulated HSCs. (B) ELISA of IL-11 secretion from HSCs stimulated with various NASH factors (n≥5/group). (C) Representative fluorescence images and quantification of ACTA2^+ve cells from HSCs treated with TGFβ1 and other NASH factors in the presence of IgG, X203, or X209 (scale bars, 100 μm and dotted line represents the median value of baseline). (D) Effects of X203 and X209 on PDGF- or CCL2-induced HSC invasion. (E) Western blots of p-ERK and ERK in HSC lysates stimulated IL-11 (upper panel) or with various NASH factors in the presence of IgG or X209 (bottom panel). (F) Representative fluorescence images and quantification of ACTA2^+ve cells in HSCs treated with IL-11 and important NASH factors in the presence of ERK/MEK inhibitors U0126 or PD98059 (scale bars, 100 μm and dotted line represents the median value of baseline). (A-F) TGFβ1 (5 ng/ml), IL-11 (5 ng/ml), PDGF (20 ng/ml), AngII (100 nM), bFGF (10 ng/ml), CM (5 ng/ml), H2O2 (0.2 mM), IgG, X203 and X209 (2 μg/ml), U0126 or PD98059 (10 μM); (A,C,E-F) 24 h; (B,D) 48 h. (G) Peripheral platelet counts, (H) serum ALT levels, (I), serum triglycerides levels, and (J) serum cholesterol levels from mice injected biweekly with 10 mg/kg of X203 and X209 for 5 months (n≥5/group). (B,D) Data are shown as mean±s.d; (C,F,G-J) data are shown as box-and-whisker with median (middle line), 25th-75th percentiles (box) and min-max percentiles (whiskers). (B,D,G-J) Two-tailed Dunnett's test; (C, F) two-tailed, Tukey-corrected Student's t-test. FC: fold change.
The published literature on IL-11 in the liver is limited but injection of high dose recombinant human IL-11 into rodents has been associated with protective effects^13,14 and there is confusion as to a role for IL-11 in platelets biology^25. To exclude safety issues, the inventors performed long-term (5 months) high dose (10 mg/kg×2/week) preclinical toxicology studies of X209 and X203 and observed no effect on serum ALT levels or platelets (FIG. 19G-19H). Consistent with the data in the Il11ra^−/− mice, anti-IL-11 therapies lowered, or trended towards lowering, serum lipid levels during this treatment period (FIGS. 19I-19J).

B1: X209: mouse anti-mouse IL-11Rα IgG (IgG1κ), neutralising; VH SEQ ID NO:24, VL SEQ ID NO:25 (antibody, V domains shown)
VH: QVQLQQPGAELVRPGSSVKLSCKASGYTFTNYWMHWLKQRPVQGLEWIGNIGPSDSKTHYNQKFKDKATLTVDKSSSTAYMQLNSLTSEDSAVYYCARGDYVLFTYWGQGTLVTVSA
VL: DIVLTQSPATLSLSPGERATLSCRASQSISNNLHWYQQKSHEAPRLLIKYASQSISGIPARFSGSGSGTDFTLSFSSLETEDFAVYFCQQSYSWPLTFGQGTKLEIK
modifications: Enx209 VH; Enx209 VL
With B1, in the data set on HFMCD-fed mice, the “Erk activation (liver)” value was “abolished”, the liver damage entry is on record as “inhibited or reversed”, the liver fibrosis result is listed as “inhibited or reversed” and the liver inflammation result was “inhibited or reversed”. In addition, in the data set with HFMCD-fed mice, the steatosis entry is reported as “unchanged”. In addition, in data set [1], the platelets result is recorded as “no effect” and the “serum ALT levels” value was “no effect”.

B2: X203: mouse anti-mouse IL-11 IgG (IgG1κ), neutralising; VH SEQ ID NO:22, VL SEQ ID NO:23 (antibody, V domains shown)
VH: EVQLQQSGPELVKPGASVKIPCKASGYTFTDYNMDWVKQSHGKSLEWIGDINPHNGGPIYNQKFTGKATLTVDKSSSTAYMELRSLTSEDTAVYYCARGELGHWYFDVWGTGTTVTVSS
VL: DIVLTQSPASLAVSLGQRATISCRASKSVSTSGYSYIHWYQQKPGQPPKLLIYLASNLDSGVPARFSGSGSGTDFTLNIHPVEEEDAATYYCQHSRDLPPTFGGGTKLEIK
modifications: Enx203 VH; Enx203 VL
Turning to B2, in the data set on HFMCD-fed mice, the “Erk activation (liver)” value is listed as “abolished”, the liver damage result is on record as “inhibited or reversed”, the liver fibrosis entry was “inhibited or reversed” and the liver inflammation result is listed as “inhibited or reversed”. Also, in the data set on HFMCD-fed mice, the steatosis entry is recorded as “unchanged”. Also, in data set [1], the platelets result is “no effect” and the “serum ALT levels” value is recorded as “no effect”.

Source of the values: patent US11813311B2, “Treatment and prevention of metabolic diseases” (Singapore Health Services PTE LTD., priority 2019, dated 2023).
